Laboratory results from the nanobody polyreactivity screen of Harvey et al. (2022).

Experiment: yeast display, Sf9 membrane polyspecificity reagent, FACS + sequencing; frameworks hold sequencing errors
Outline: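 A synthetic nanobody library was expressed on Saccharomyces cerevisiae BJ5465 by galactose induction for 36–48 hours. The library was stained for 1 hour at 4 °C with 10% biotinylated, detergent-solubilized Sf9 membrane reagent and enriched with streptavidin microbeads before FACS. Low and high (top ~1%) gates were set on anti-HA fluorescence for expression and streptavidin fluorescence for reagent binding, and each polyreactivity label reflects the gate of origin.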
With “QVQLVESAAGLVQAGGSLRLSCAASGSTFGHYTMGWYRQAPGKERDLVAAISWSGGRTYYADSVKGRFTISRDYAKNTVYLQMNSLKPEDTAVYYCYVGYRGWSVNSWGQGTQVTVSS” the “polyreactivity (PSR sort gate)” value was “high polyreactivity”. In the case of “QVQLVESAAGLVQAGGSLRVSCAASGSSFRLYAMGWYRPAPGKEREFVARIRWRGGSTNYADSVKGRFTISRDNAKNNVYLQMNSLKTEDTAVYYCAAKQGTVRAHTYVPWYDYWGQGTQVTVSS”, the “polyreactivity (PSR sort gate)” value is reported as “high polyreactivity”. In the case of “QVQLVESAAGLVQAGGSLSLICAASGYIFATYAMGWYIQAPGTETELVAAITSGGITNYADSVKGRFTISRDNAKNTVYLQMNSLKPEDTAVYYCATGRRRYYFREYYYWGQGTQVTVSS”, the “polyreactivity (PSR sort gate)” value is reported as “high polyreactivity”. For “QVQLVESAGCLVQAGASLRLSCAASGGTFRLYAMGWSRQAPGKERELVAAITGSSGGTYYADSVKGRFTISRDNAKNTVYLQMNSLKPEDTAVYYCAASSSYWGQGTQVTVSS”, the “polyreactivity (PSR sort gate)” value was “low polyreactivity”. In the case of “QVQLVESAGGIDQAGGRLRLSSAASGGIFTPYAMGCYRQAPGKDRELVATISSDGSTNYADSVKGRFTISRDNAKNTVYLQMNSLKPEDTAVYYCNIDRHKVAGTLPGWWYDYLGQGTQVTVSS”, the “polyreactivity (PSR sort gate)” value is reported as “low polyreactivity”. With “QVQLVESAGGLFQAGGSLRLSCAASGRTFYSNTMGWYRQAPGKEREFVAAIPSIVGSTYYADSVKGRFTISRDNSKNTVYLQMKSLKPEDTAVYDCAVTDYYSYLLRYDSWGQGTEVTVSS” the “polyreactivity (PSR sort gate)” value was “low polyreactivity”. In the case of “QVQLVESAGGLVQAGASLRLSCAASGGTSPVYAMGWYRQAPGKERELVAAIRYSGGRTNYADSVKGRFTISRDNAKNTVYLQMNSLKPEDTAVYYCAARGYRYQGDYWGQGTQVTVSS”, the “polyreactivity (PSR sort gate)” value is reported as “high polyreactivity”. With “QVQLVESAGGLVQAGASLRLSCAASGSTFYYYAMGWYRQAPGKERELVAAIDWDSGSTYYADSVKGRFTISRDNAKNTVFLQMNSLNPEDTAVYYCAADSWFSDFDYWGQGTQETVSS” the “polyreactivity (PSR sort gate)” value was “high polyreactivity”. For “QVQLVESAGGLVQAGASLRLSCDASGSTFVYYDMGWYRQAPGKERELVASISWSGGSTSYSDSVKGRFTISRDNAKNTVYLQMNSLKPEDTAVYYCNKSNPDYDGLAIHAFDYWGQGTQVTVSS”, the “polyreactivity (PSR sort gate)” value was “low polyreactivity”. In the case of “QVQLVESAGGLVQAGGILRLSCAASGGIFRGYAMGWYRQAPGKERELVATIRSSGRTNYADSVKGRFTISRDNAKNTVYLQMNSLKPEDTAVYYCNKRRWWQYDRWGDWVLGGDDYWGQGTQVTVSS”, the “polyreactivity (PSR sort gate)” value is reported as “low polyreactivity”. For “QVQLVESAGGLVQAGGILRLSCAASGRIFTRNAMGWYRQAPGKERELVAAISSSSGSKYYADSVKGRFTISRDNAKNTVYLQMNSLKPEDTAVYYCAARSYYYSWGYDHWGQGTQVTVSS”, the “polyreactivity (PSR sort gate)” value was “high polyreactivity”. For “QVQLVESAGGLVQAGGRLRLSCAASGFTFKKYAMGWYRQAPGKERELVASITWSGGSTSYADSVKGRFTISRDNAKNTVYLQMTSLKPEDTAVYYCAAATFVYRLRYNRFDYGGQGTQVTVSS”, the “polyreactivity (PSR sort gate)” value was “high polyreactivity”. For “QVQLVESAGGLVQAGGSHRLSCAASGFIFDSYAMGCYRPAPGKERELVAAITYSGSSTYYADSVKGRFTISRDNAKNTVYLQMNSLKPEDTGVYYCAAVWRYSHLYGYWGQGTQVTVSS”, the “polyreactivity (PSR sort gate)” value was “high polyreactivity”. In the case of “QVQLVESAGGLVQAGGSLRISCAASGIIFARYSMGWYRPAPGKERELVAAINSSGGDTYYADSVKGRFTISRDTANNTVYLQMISLKPEDPAVYYCAKVISYLVVLPRTERYEGDYWGQGTQVTVSS”, the “polyreactivity (PSR sort gate)” value is reported as “low polyreactivity”. In the case of “QVQLVESAGGLVQAGGSLRLICAASGFTSNVYTMGWYRQAPGKERELVAAITSGGSTNYADSVKGRFTISRDNAKNTVYLQMNSLKPEDTAVYYCNTDVKEYFHHEGYPLRWEYDYWGQGTQVTVSS”, the “polyreactivity (PSR sort gate)” value is reported as “low polyreactivity”. For “QVQLVESAGGLVQAGGSLRLSCAASGFIFEWYTMGWYRHAPGKERELVARISSDGSTTYADSVKGRFRISRDNAKNTVYLQMNSLKPEDTAVYYCAADVTYPGLKYIFDYWGQGSQVTVSS”, the “polyreactivity (PSR sort gate)” value was “low polyreactivity”. With “QVQLVESAGGLVQAGGSLRLSCAASGFIFYSNAMGWYRQAPGKERELVAGISRGGSTYYADSVKGRFTISRDNAKNTVYLQMNSLKPEDTAVYYCAASPSSYGRYGYWGQGTQVTVSS” the “polyreactivity (PSR sort gate)” value was “low polyreactivity”. With “QVQLVESAGGLVQAGGSLRLSCAASGFTFREYAMGWYRQAPGKERELVAVITSGDNTYYADSVKGRFTISRDNAKNTVYLQMNSLKPEDTAVYYCAKDYNRYYWPWVIRGYDYWGQGTQVTVSS” the “polyreactivity (PSR sort gate)” value was “low polyreactivity”. With “QVQLVESAGGLVQAGGSLRLSCAASGFTFYWYAMGWYRQAPGKEREFVAAIDQSGGSTYYADSVKGRFTISRDNAKNTVYLQMNSLKPEDTAVYYCAARYILWDGDSWTEFDYWGQGTQVTVSS” the “polyreactivity (PSR sort gate)” value was “low polyreactivity”. In the case of “QVQLVESAGGLVQAGGSLRLSCAASGITLSYNAMGWYRQAPGKERELVAAISARGGSTYYADSVKGRFTISRDPAKNTVYLQMYSLKPEDTAVYYCAAPRGWRQNKYDYWGQVTQVTVSS”, the “polyreactivity (PSR sort gate)” value is reported as “high polyreactivity”. For “QVQLVESAGGLVQAGGSLRLSCAASGITYDHYAMGWYRQAPGKERELVARITGTGDSTYYADSVKGRFTISRDNAKNTVYLQMNSLKPEDTAVYYCAAVSYRQYYGWGNYWGLGTQVTVSS”, the “polyreactivity (PSR sort gate)” value was “low polyreactivity”. In the case of “QVQLVESAGGLVQAGGSLRLSCAASGLTYVPNAMGWYRQAPGKEREIVAAICNNGGRTYYADSVKGRFTISRDNAKNTVYLEMNSLKPEDTAVYYCAKYLSPGERHSYDYWGQGTQVTVSS”, the “polyreactivity (PSR sort gate)” value is reported as “high polyreactivity”. In the case of “QVQLVESAGGLVQAGGSLRLSCAASGNTFDPNAMGWYRQAPGKEREFVAAISTIGSSTYYADSVKGRFTISRDNAKYTVYLQMNSLNPEVTAVYYCAKGIYVVYGIDDYWGQGTQVTLSS”, the “polyreactivity (PSR sort gate)” value is reported as “low polyreactivity”. For “QVQLVESAGGLVQAGGSLRLSCAASGRIFGQYTMGWYRQAPGKERELDAAISSSGGRTYYADSVKGRFTISRDNAKNTVYLQMNSLKPEDTAVYYCAARDRPSPYYYWGQGTQVTVSS”, the “polyreactivity (PSR sort gate)” value was “high polyreactivity”. With “QVQLVESAGGLVQAGGSLRLSCAASGRIFWLYAMGWYRQAPGKERELVASISQSGANTYYADSVKGRFTISRDNSKNNVYLQMNCLKPEYTSVDYCSSNRYDSYYFWVGYWGQGSQVTVSS” the “polyreactivity (PSR sort gate)” value was “low polyreactivity”. In the case of “QVQLVESAGGLVQAGGSLRLSCAASGRILPSNAMGWYRQAPGKERELVAGITSGGSTDYADSVKGRFTISRDNAKNTVYLQMNSLKPEDTGVFYCAADSRRYGVRFDYWGQGTQVTVSS”, the “polyreactivity (PSR sort gate)” value is reported as “low polyreactivity”. In the case of “QVQLVESAGGLVQAGGSLRLSCAASGRTFGWYAMGWYRQAPGKERELVAAITSSDDSTYYADSVKGRFTISRDNAKNTVYLQMNSLKPEDTEVYYCNKVKYFARSAYGYWGLGTQVTVSS”, the “polyreactivity (PSR sort gate)” value is reported as “low polyreactivity”. For “QVQLVESAGGLVQAGGSLRLSCAASGRTFHWYTMGWYRQAPGKEREFVAGINWSGARTYYADSVKGRFTISRDNAKNTVYLQMNSLKPEDTAVYYCAKRLWGIDFDYWGQGTQVTVSS”, the “polyreactivity (PSR sort gate)” value was “high polyreactivity”. In the case of “QVQLVESAGGLVQAGGSLRLSCAASGRTFWSYAMGWSRQAPGKERELVAAINSGGSTYYADSVKGRFTISRDNAKITVYLQRNSLKPEDTAVYYCDADTWYGFDWGVGTQVTVSS”, the “polyreactivity (PSR sort gate)” value is reported as “high polyreactivity”. In the case of “QVQLVESAGGLVQAGGSLRLSCAASGRTFYSYAMGWSRQAPGKEREFVAAITKSGGSTYYADSVKGRFTISRDNAKNTVYLQMNSLKPEDTAVYYCAAGLVATFSRPGRASYRYNYWGQGTQVTVSS”, the “polyreactivity (PSR sort gate)” value is reported as “high polyreactivity”. With “QVQLVESAGGLVQAGGSLRLSCAASGRTITFNTMGLYRQAPGKERELVAGIDRGGSTNYADSVKGRFTISRDNAKNTVYLQMNSLKPEDTAVYYCAADPPGYVYGKRYYWGQGTQVTVSS” the “polyreactivity (PSR sort gate)” value was “high polyreactivity”.
